Source: paper PMC3526273, “A SUMO-interacting motif activates budding yeast ubiquitin ligase Rad18 towards SUMO-modified PCNA” (Nucleic Acids Research, 2012)
Changes are numbered by the printed parent chain. Numbers in names are those of the source. One block for each binder: values may come before it.

Target: T1, GSTPCNA (S. cerevisiae, UniProt P15873 1-258)
T1 construct: PCNA of S. cerevisiae; not shown: GST, N-terminal, kept
T1 sequence (looked up): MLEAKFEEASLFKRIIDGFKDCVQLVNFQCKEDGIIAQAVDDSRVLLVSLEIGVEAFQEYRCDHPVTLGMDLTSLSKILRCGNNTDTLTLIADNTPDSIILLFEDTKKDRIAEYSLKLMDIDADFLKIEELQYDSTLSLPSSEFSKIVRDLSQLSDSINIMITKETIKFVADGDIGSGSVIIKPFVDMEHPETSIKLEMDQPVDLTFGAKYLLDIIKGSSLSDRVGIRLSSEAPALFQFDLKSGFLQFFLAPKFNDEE
Assay: pull-down; GST-tagged protein immobilised on glutathione Sepharose (1 h, 4°C), binding partner added for 90 min at 4°C in phosphate-buffered saline with 0.05% Triton X-100; three washes; anti-His western blot
Settings: both partners purified

binding result: binds
B1: HisRad18(1-255) (domain or fragment, S. cerevisiae, UniProt P10862 1-255, looked up)
chain: MDHQITTASDFTTTSIPSLYQLDTLLRCHICKDFLKVPVLTPCGHTFCSLCIRTHLNNQPNCPLCLFEFRESLLRSEFLVSEIIQSYTSLRSSLLDALRIPKPTPVPENEEVPGPENSSWIELISESESDSVNAADDDLQIVATSERKLAKRSMTDILPLSSKPSKRNFAMFRSERIKKKSKPNEQMAQCPICQQFYPLKALEKTHLDECLTLQSLGKKPKISTTFPTESNPHNKSSSRFKVRTPEVDKSSCGET
notes: detected by anti-His western blot; not shown: His6, N-terminal, kept

binding result: binds
B2: HisRad18(1-255) SIM* (L139A, I141A, V142A) (domain or fragment, S. cerevisiae, UniProt P10862 1-255, looked up)
chain: B1 chain with L139A, I141A, V142A
notes: also called SIM* mutant; not shown: His6, N-terminal, kept
